Test results published in IntAct's records for PubMed 16864798.

Molecular target: plk1_human PLK1 (UniProt P53350)
Sequence (P53350 whole entry): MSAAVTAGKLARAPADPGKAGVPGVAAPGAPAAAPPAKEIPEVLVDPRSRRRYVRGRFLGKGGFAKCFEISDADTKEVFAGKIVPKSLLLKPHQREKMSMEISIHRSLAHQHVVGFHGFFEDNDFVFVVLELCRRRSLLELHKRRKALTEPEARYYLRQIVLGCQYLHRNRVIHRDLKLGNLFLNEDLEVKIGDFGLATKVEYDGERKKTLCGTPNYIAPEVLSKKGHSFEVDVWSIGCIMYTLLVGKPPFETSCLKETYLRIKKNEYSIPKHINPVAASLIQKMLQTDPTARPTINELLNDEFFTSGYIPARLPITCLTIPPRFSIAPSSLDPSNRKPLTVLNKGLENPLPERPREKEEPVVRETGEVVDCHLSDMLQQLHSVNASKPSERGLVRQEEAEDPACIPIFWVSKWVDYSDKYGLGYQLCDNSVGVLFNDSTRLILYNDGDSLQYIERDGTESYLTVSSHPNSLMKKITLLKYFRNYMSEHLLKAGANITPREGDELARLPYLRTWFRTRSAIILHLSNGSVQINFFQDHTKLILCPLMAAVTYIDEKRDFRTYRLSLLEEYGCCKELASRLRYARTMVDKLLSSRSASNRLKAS

RecQ-like DNA helicase BLM (Homo sapiens), P54132 S144A;S304A;S1290A;S1296A
effect of a mutation on the interaction: disrupting interaction strength
